Experimental data taken from the supplement of paper PMC10065799, “High-throughput profiling of sequence recognition by tyrosine kinases and SH2 domains using bacterial peptide display” (eLife, 2023).

Molecular target: c-Src SH2
Assay: SH2 binding enrichment of the phosphorylated peptide, bacterial display (enrichment ratio); higher = better substrate or ligand; peptides without Tyr show the background
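For SH2 binding enrichment of the phosphorylated peptide, bacterial display in this document: peptide library displayed on the E. coli surface as eCPX fusions, selected cells deep-sequenced, score is each peptide's frequency after selection divided by its frequency in the input.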
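For phosphorylation enrichment, bacterial display in this document: 11-residue human phosphosite peptides and single-mutation variants displayed on the E. coli surface, counted by deep sequencing, each peptide's frequency after selection divided by its frequency in the unselected input library; frequency after pTyr selection over input frequency; kinase dosed for 20-30% of maximal phosphorylation in three min.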

| Sequence | SH2 binding enrichment |
| --- | --- |
| HRGSLYLAIEF [TEK_Y899_Y897S_YF] | 0.536 |
| VFPIDYYFPPQ [AR_Y552_L548F] | 1.04 |
| PLDNLYAEPAV [PRPS1_Y146_V142L] | 0.486 |
| YASALYRQRRS [FGF11_Y162] | 0.419 |
| VKPENYWRLDI [VHL_Y175_R176W] | 0.586 |
| FLRKEYGGLNV [CBR3_Y81] | 0.435 |
| DKATEYIQFVR [MAX_Y70_M74V_YF] | 0.459 |
| MGSFNYLGFAR [SPTLC2_Y178_YF] | 0.59 |
| KIPGRYFETGS [PAX2_Y72_L69P_YF] | 0.606 |
| GSPAPYRRRKR [MBD1_Y403_P401A] | 0.42 |
| PINEPYGDDLD [JUP_Y693_M697L] | 0.655 |
| LHSDHYSPSGR [TMPRSS12_Y23_Y19H] | 0.637 |
| EKQLLYSENKT [FRK_Y132] | 0.55 |
| NSRYTCKLEVK [USH2A_Y3747_Y3747C] | 0.449 |
| DRLASNLDKVR [KRT10_Y160_Y160N] | 0.565 |
| GNHVSYYQSDG [CACNA1C_Y1757] | 0.902 |
| SIIKDSFHRGA [GATM_Y203_Y203S] | 0.482 |

| Sequence | SH2 binding enrichment |
| --- | --- |
| EFLHKYKGFKI [SYNE1_Y6953_Q6951H_YF] | 0.34 |
| KTDVRYRSLGG [DYSF_Y1858_H1857R] | 0.383 |
| SVEVPYEPPEV [TP53_Y220_V217E] | 0.591 |
| RVGNMYVRGLS [ABCG8_Y209] | 0.564 |
| PLGKDYRKAEG [MAP1A_Y1909] | 0.408 |
| SYMVRYNQPRV [GRIN2D_Y736] | 1.11 |
| SFKNKYGMVAQ [APOB_Y276_YF] | 0.455 |
| GLRSFYETSKM [MAGED2_Y449_YF] | 0.582 |
| AEYGLYGAMVW [VSX2_Y222_R227W] | 0.419 |
| TVFENYVADIE [RHOA_Y42] | 0.541 |
| PESIPYRKFTT [NTRK1_Y701_L700P] | 0.476 |
| ATDLAYYLVRE [ASL_Y375_K380E] | 1.58 |
| FHNSEYGELSE [FLT4_Y1337_Y1333H] | 0.452 |
| HNQDGYSFLSR [LDLR_Y845_P848L_YF] | 6.05 |
| ASPKSYPSQKH [CAP2_Y316_T311A] | 0.385 |
| KICDWYQRQRP [KRT14_Y151_R148C] | 0.616 |

Molecular target: SHP2-C SH2
Assay: as above

| Sequence | SH2 binding enrichment |
| --- | --- |
| HRGSLYLAIEF [TEK_Y899_Y897S_YF] | 0.683 |
| VFPIDYYFPPQ [AR_Y552_L548F] | 1.08 |
| PLDNLYAEPAV [PRPS1_Y146_V142L] | 0.655 |
| YASALYRQRRS [FGF11_Y162] | 0.34 |
| VKPENYWRLDI [VHL_Y175_R176W] | 0.876 |
| FLRKEYGGLNV [CBR3_Y81] | 0.432 |
| DKATEYIQFVR [MAX_Y70_M74V_YF] | 0.73 |
| MGSFNYLGFAR [SPTLC2_Y178_YF] | 1.58 |
| KIPGRYFETGS [PAX2_Y72_L69P_YF] | 0.726 |
| GSPAPYRRRKR [MBD1_Y403_P401A] | 0.413 |
| PINEPYGDDLD [JUP_Y693_M697L] | 0.568 |
| LHSDHYSPSGR [TMPRSS12_Y23_Y19H] | 0.557 |
| EKQLLYSENKT [FRK_Y132] | 0.674 |
| NSRYTCKLEVK [USH2A_Y3747_Y3747C] | 0.626 |
| DRLASNLDKVR [KRT10_Y160_Y160N] | 0.917 |
| GNHVSYYQSDG [CACNA1C_Y1757] | 0.802 |
| SIIKDSFHRGA [GATM_Y203_Y203S] | 0.829 |

| Sequence | SH2 binding enrichment |
| --- | --- |
| EFLHKYKGFKI [SYNE1_Y6953_Q6951H_YF] | 0.998 |
| KTDVRYRSLGG [DYSF_Y1858_H1857R] | 0.634 |
| SVEVPYEPPEV [TP53_Y220_V217E] | 0.797 |
| RVGNMYVRGLS [ABCG8_Y209] | 0.732 |
| PLGKDYRKAEG [MAP1A_Y1909] | 0.647 |
| SYMVRYNQPRV [GRIN2D_Y736] | 1.25 |
| SFKNKYGMVAQ [APOB_Y276_YF] | 0.543 |
| GLRSFYETSKM [MAGED2_Y449_YF] | 0.771 |
| AEYGLYGAMVW [VSX2_Y222_R227W] | 0.696 |
| TVFENYVADIE [RHOA_Y42] | 0.618 |
| PESIPYRKFTT [NTRK1_Y701_L700P] | 0.507 |
| ATDLAYYLVRE [ASL_Y375_K380E] | 3.3 |
| FHNSEYGELSE [FLT4_Y1337_Y1333H] | 0.992 |
| HNQDGYSFLSR [LDLR_Y845_P848L_YF] | 2.83 |
| ASPKSYPSQKH [CAP2_Y316_T311A] | 0.638 |
| KICDWYQRQRP [KRT14_Y151_R148C] | 0.75 |

Molecular target: Grb2 SH2 (UniProt P62993)
Sequence (P62993 whole entry, looked up): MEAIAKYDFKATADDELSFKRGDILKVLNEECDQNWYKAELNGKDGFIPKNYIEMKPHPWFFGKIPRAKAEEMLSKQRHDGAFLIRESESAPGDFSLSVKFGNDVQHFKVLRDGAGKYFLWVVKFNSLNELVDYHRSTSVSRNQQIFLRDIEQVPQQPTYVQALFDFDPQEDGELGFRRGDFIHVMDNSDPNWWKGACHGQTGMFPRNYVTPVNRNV
Assay: as above

| Sequence | SH2 binding enrichment |
| --- | --- |
| HRGSLYLAIEF [TEK_Y899_Y897S_YF] | 0.956 |
| VFPIDYYFPPQ [AR_Y552_L548F] | 1.24 |
| PLDNLYAEPAV [PRPS1_Y146_V142L] | 0.995 |
| YASALYRQRRS [FGF11_Y162] | 0.649 |
| VKPENYWRLDI [VHL_Y175_R176W] | 0.902 |
| FLRKEYGGLNV [CBR3_Y81] | 0.667 |
| DKATEYIQFVR [MAX_Y70_M74V_YF] | 0.789 |
| MGSFNYLGFAR [SPTLC2_Y178_YF] | 1.05 |
| KIPGRYFETGS [PAX2_Y72_L69P_YF] | 1.37 |
| GSPAPYRRRKR [MBD1_Y403_P401A] | 0.594 |
| PINEPYGDDLD [JUP_Y693_M697L] | 0.727 |
| LHSDHYSPSGR [TMPRSS12_Y23_Y19H] | 0.995 |
| EKQLLYSENKT [FRK_Y132] | 0.976 |
| NSRYTCKLEVK [USH2A_Y3747_Y3747C] | 0.808 |
| DRLASNLDKVR [KRT10_Y160_Y160N] | 0.883 |
| GNHVSYYQSDG [CACNA1C_Y1757] | 0.806 |
| SIIKDSFHRGA [GATM_Y203_Y203S] | 0.838 |

| Sequence | SH2 binding enrichment |
| --- | --- |
| EFLHKYKGFKI [SYNE1_Y6953_Q6951H_YF] | 0.832 |
| KTDVRYRSLGG [DYSF_Y1858_H1857R] | 0.898 |
| SVEVPYEPPEV [TP53_Y220_V217E] | 0.977 |
| RVGNMYVRGLS [ABCG8_Y209] | 0.994 |
| PLGKDYRKAEG [MAP1A_Y1909] | 0.884 |
| SYMVRYNQPRV [GRIN2D_Y736] | 0.871 |
| SFKNKYGMVAQ [APOB_Y276_YF] | 0.934 |
| GLRSFYETSKM [MAGED2_Y449_YF] | 0.933 |
| AEYGLYGAMVW [VSX2_Y222_R227W] | 0.62 |
| TVFENYVADIE [RHOA_Y42] | 0.798 |
| PESIPYRKFTT [NTRK1_Y701_L700P] | 0.747 |
| ATDLAYYLVRE [ASL_Y375_K380E] | 1.08 |
| FHNSEYGELSE [FLT4_Y1337_Y1333H] | 0.893 |
| HNQDGYSFLSR [LDLR_Y845_P848L_YF] | 0.784 |
| ASPKSYPSQKH [CAP2_Y316_T311A] | 0.635 |
| KICDWYQRQRP [KRT14_Y151_R148C] | 0.854 |

Molecular target: MERTK (UniProt Q12866)
Sequence (Q12866 whole entry, looked up): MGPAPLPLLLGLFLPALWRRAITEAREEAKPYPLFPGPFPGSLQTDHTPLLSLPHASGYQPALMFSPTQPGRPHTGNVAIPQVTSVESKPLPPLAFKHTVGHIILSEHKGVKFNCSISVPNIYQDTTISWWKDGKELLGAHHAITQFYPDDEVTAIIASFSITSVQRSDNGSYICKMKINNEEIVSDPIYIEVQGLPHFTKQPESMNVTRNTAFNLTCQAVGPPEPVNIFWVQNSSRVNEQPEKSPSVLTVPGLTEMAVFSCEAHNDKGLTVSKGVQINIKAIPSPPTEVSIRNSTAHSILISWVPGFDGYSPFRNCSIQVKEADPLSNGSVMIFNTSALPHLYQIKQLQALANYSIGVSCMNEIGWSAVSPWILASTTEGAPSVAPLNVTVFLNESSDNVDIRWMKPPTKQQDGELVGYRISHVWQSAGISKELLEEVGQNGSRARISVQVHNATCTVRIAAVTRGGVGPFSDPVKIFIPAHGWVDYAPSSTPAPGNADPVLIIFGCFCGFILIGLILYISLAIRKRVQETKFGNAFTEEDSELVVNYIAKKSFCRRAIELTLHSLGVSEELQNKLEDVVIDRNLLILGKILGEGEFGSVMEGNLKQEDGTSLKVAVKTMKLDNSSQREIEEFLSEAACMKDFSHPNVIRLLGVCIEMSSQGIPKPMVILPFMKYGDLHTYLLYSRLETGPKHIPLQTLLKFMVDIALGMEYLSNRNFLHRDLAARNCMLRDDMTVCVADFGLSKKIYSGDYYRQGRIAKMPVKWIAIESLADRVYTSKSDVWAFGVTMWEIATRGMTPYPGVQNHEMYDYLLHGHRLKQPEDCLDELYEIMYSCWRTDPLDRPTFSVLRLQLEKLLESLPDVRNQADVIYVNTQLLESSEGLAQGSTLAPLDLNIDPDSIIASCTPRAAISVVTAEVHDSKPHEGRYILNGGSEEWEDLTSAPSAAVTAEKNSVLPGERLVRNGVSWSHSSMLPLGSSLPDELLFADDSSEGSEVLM
Assay: phosphorylation enrichment, bacterial display (enrichment ratio); higher = better substrate or ligand; peptides without Tyr show the background

| Sequence | phosphorylation enrichment |
| --- | --- |
| HRGSLYLAIEF [TEK_Y899_Y897S_YF] | 0.538 |
| VFPIDYYFPPQ [AR_Y552_L548F] | 2.24 |
| PLDNLYAEPAV [PRPS1_Y146_V142L] | 8.88 |
| YASALYRQRRS [FGF11_Y162] | 0.535 |
| VKPENYWRLDI [VHL_Y175_R176W] | 0.588 |
| FLRKEYGGLNV [CBR3_Y81] | 0.385 |
| DKATEYIQFVR [MAX_Y70_M74V_YF] | 0.41 |
| MGSFNYLGFAR [SPTLC2_Y178_YF] | 0.443 |
| KIPGRYFETGS [PAX2_Y72_L69P_YF] | 0.464 |
| GSPAPYRRRKR [MBD1_Y403_P401A] | 0.608 |
| PINEPYGDDLD [JUP_Y693_M697L] | 0.653 |
| LHSDHYSPSGR [TMPRSS12_Y23_Y19H] | 0.617 |
| EKQLLYSENKT [FRK_Y132] | 0.766 |
| NSRYTCKLEVK [USH2A_Y3747_Y3747C] | 0.387 |
| DRLASNLDKVR [KRT10_Y160_Y160N] | 0.394 |
| GNHVSYYQSDG [CACNA1C_Y1757] | 0.81 |
| SIIKDSFHRGA [GATM_Y203_Y203S] | 0.362 |

| Sequence | phosphorylation enrichment |
| --- | --- |
| EFLHKYKGFKI [SYNE1_Y6953_Q6951H_YF] | 0.431 |
| KTDVRYRSLGG [DYSF_Y1858_H1857R] | 0.346 |
| SVEVPYEPPEV [TP53_Y220_V217E] | 0.564 |
| RVGNMYVRGLS [ABCG8_Y209] | 0.395 |
| PLGKDYRKAEG [MAP1A_Y1909] | 0.589 |
| SYMVRYNQPRV [GRIN2D_Y736] | 0.45 |
| SFKNKYGMVAQ [APOB_Y276_YF] | 0.341 |
| GLRSFYETSKM [MAGED2_Y449_YF] | 0.374 |
| AEYGLYGAMVW [VSX2_Y222_R227W] | 2.66 |
| TVFENYVADIE [RHOA_Y42] | 0.631 |
| PESIPYRKFTT [NTRK1_Y701_L700P] | 0.86 |
| ATDLAYYLVRE [ASL_Y375_K380E] | 1.23 |
| FHNSEYGELSE [FLT4_Y1337_Y1333H] | 0.352 |
| HNQDGYSFLSR [LDLR_Y845_P848L_YF] | 0.914 |
| ASPKSYPSQKH [CAP2_Y316_T311A] | 0.356 |
| KICDWYQRQRP [KRT14_Y151_R148C] | 0.511 |
